From patent publication US20260248877A1 (Universite de Rennes, priority 2021, published 2026)
Entries after “also recorded” stand apart in the source; their conditions may differ.

Columns and labels:
[1] = Determination of the aggregative character of the peptides by sedimentation; type: physicochemical; details: sedimentation, Garnier-Delamarche representation
Method: (§1) After thawing, a pre-dilution in milli Q H2O filtered through 0.2 μm was carried out in order to obtain a solution at a concentration close to the working concentration, greater than 1.25 times. This stock solution was left to incubate for 1 hour in a water bath at 25° C., and was then assayed spectrophotometrically and adjusted to the final working concentration of 1.25 times. The polymerization was initiated by adding ¼ of the volume of 5× fibrillation buffer (50 mM MOPS, 750 mM NaCl, pH=7.2) for a final concentration of 1× fibrillation buffer (10 mM MOPS, 150 mM NaCl, PH=7.2). The samples were left to incubate for 1.5-2 hours at 25° C. in a water bath. The study of the polymerization by fluorimetry was carried out under the same conditions, except that the 5× polymerization buffer was supplemented with Thioflavin T (ThT) at 100 μM in order to be able to observe the fluorescence. • (a) Determination of the Aggregative Character of the Peptides. Once polymerized, the samples were ultracentrifuged at 100,000 g for 5 minutes at 25° C. (Beckman TL100, rotor TL-A100). The supernatants of each sample were then collected. An assay at 280 nm in triplicate of each supernatant was then carried out in the presence of 1% SDS. The concentration of the supernatant was determined using the Beer-Lambert law A=ε×1×C; ε (peptides)=1450 M^−1cm^−1. The concentration of sedimentable species in the pellet was then deduced by the difference: “total concentration of the sample—concentration of free peptide present in the supernatant”. • (b) Determination of the Amyloidogenic Character of the Peptides. Once the peptides have polymerized as previously indicated, 40 μL of peptides polymerized at a concentration of 400 μM and 800 μM were diluted in 360 μL of Thioflavin T (10 μM ThT, 1×MOPS) in a thermostatically controlled tank of 0.2×1 cm, to a final volume of 400 μL. The fluorescence of the sample was then measured immediately after dilution by recording a fluorescence spectrum (470 nm to 600 nm) at an excitation wavelength of 450 nm (Perkin Elmer LS 55, PM 750, slit10).
(§2) After prediction of their amyloidogenic character by bioinformatics, all the peptides were studied using biochemical techniques, namely sedimentation and fluorescence/ThT. The biochemical experiments were carried out at two peptide concentrations: 400 μM and 800 μM. Only the results obtained at 800 μM are presented. At this concentration, in sedimentation, the amount of sedimentable peptide after polymerization was measured and expressed as a percentage as a function of the total concentration. This value corresponds to the aggregative character of the peptides. On the other hand, the fluorescence test was used to determine their amyloidogenic character, the fluorescence value given corresponds to a normalization with respect to 1p, considering that its fluorescence is 100% (Table 4).

[2] = Polymerization kinetics of selected peptide alone (ThT spectrofluorimetry); type: physicochemical; details: 310 μM, ThT fluorescence
Method: After thawing, a pre-dilution of the peptides of interest in sterile water was carried out in order to obtain, for each peptide, a solution at a concentration close to the working concentration. The peptides were then left to incubate at 4° C. overnight. On the day of the experiment, the peptide solutions were sonicated for 10 minutes, left to stand for one hour at room temperature, sonicated again for 10 minutes and assayed spectrophotometrically at 280 nm (8=1450 M^−1cm^−1). The UV spectra were previously normalized to 0 at 300 nm. The solutions were prepared at concentrations of peptides ¼ above that desired in the end. The polymerization of VQIVYK was initiated by adding ¼ of the volume of fibrillation buffer 5× for a final concentration of fibrillation buffer 1× (10 mM MOPS, 150 mM NaCl, pH=7.2).
The analyses were carried out on a spectrofluorometer (LS 55 from Perkin Elmer) fitted with a 4-cell rack. Black quartz cells (0.2×1.0 cm) were used. […]
The results were first smoothed over 10 points with the “smooth” option of the KaleidaGraph software. […] Finally, the results of each kinetics were normalized relative to the fluorescence intensity of the 1p control after 100 minutes of polymerization considered to be 100%.

[3] = target: T1, PHF6 peptide (VQIVYK, 1p) (Homo sapiens, UniProt P10636); experiment: Effects of the derived peptides on VQIVYK polymerization by spectrofluorimetry (ThT kinetics); type: biochemical
T1 construct: The polymerization of VQIVYK was initiated by adding ¼ of the volume of fibrillation buffer 5×

[4] = tested on: cells of the neuroblastoma line SH-SY5Y; experiment: Growth of SH-SY5Y neuroblastoma cells (images); type: cell-based; details: 100 μM, 24 hours, 1×DMEM medium, 8% serum
Method: The effects of three hexapeptides classified as “therapeutic” (1tp, 4tp, 6tp) and of two peptides classified as “amyloid” (7tp and 1p) on the growth of cells of the neuroblastoma line SH-SY5Y were studied after 24 hours of treatment in the presence of a hexapeptide at a concentration of 100 μM in 1×DMEM medium, 8% serum. The results obtained are presented on FIG. 10(A).

[5] = Determination of the amyloidogenic character of the peptides by Thioflavin T fluorescence; type: physicochemical; details: ThT fluorescence, Garnier-Delamarche representation
Method: as §1, §2

In the case of YQIVVK (Ac-YQIVVK-NH2) [6tp], the “aggregative character (in words)” value [1] is reported as “weakly aggregative”, the “polymerization of the peptide on its own” value [2] is reported as “do not polymerize on their own” and the “category of polymerization kinetics of 1p in the presence of peptide” value ([3]; [1p]=155 μM, [selected peptide]=310 μM) is reported as “slow compared to 1p alone and which have a lower fluorescence intensity”. The “inhibitory effect on 1p (PHF6) polymerization (in words)” value ([3]; [1p]=155 μM, [selected peptide]=310 μM, thresholds 50% rate, 100% fluorescence intensity) was “clearly inhibited; also recorded: marked inhibitory effect; also recorded: with a strong inhibitory effect”, the “inhibitory effect over longer times” value ([3]; polymerization followed for 15 hours) was “the inhibitory effect persisted” and the “effect on cell growth (number and appearance of cells)” value [4] was “did not seem to have any effect”. For the same substance, the “amyloidogenic character (in words)” value [5] was “weakly amyloidogenic”.
